The values that follow come from US20220380426A1.

This test concerns the target IL-27 receptor (on BL-2 cells) (human) (UniProt Q6UWB1). Briefly: cell-based or functional assay.

Chain of IL-27 receptor (on BL-2 cells) (human) (Q6UWB1 33-636, chain 1 of 2): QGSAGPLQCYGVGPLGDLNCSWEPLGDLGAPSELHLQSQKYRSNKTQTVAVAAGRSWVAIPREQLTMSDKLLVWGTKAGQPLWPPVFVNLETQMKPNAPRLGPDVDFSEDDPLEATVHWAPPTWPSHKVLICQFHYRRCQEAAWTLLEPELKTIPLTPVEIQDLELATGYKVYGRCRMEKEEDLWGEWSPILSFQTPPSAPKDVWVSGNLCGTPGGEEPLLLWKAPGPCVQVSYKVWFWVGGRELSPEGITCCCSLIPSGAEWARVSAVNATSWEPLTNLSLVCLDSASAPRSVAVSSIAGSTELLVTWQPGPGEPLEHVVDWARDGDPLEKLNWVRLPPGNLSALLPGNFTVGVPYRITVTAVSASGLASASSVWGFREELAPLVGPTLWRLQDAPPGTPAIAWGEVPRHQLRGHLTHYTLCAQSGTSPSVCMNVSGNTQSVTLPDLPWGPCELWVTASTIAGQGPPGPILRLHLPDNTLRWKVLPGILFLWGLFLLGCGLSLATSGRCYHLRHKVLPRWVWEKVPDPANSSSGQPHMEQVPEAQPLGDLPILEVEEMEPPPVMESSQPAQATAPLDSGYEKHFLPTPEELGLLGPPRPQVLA
Chain of IL-27 receptor (on BL-2 cells) (human) (P40189 23-918, chain 2 of 2, further chain): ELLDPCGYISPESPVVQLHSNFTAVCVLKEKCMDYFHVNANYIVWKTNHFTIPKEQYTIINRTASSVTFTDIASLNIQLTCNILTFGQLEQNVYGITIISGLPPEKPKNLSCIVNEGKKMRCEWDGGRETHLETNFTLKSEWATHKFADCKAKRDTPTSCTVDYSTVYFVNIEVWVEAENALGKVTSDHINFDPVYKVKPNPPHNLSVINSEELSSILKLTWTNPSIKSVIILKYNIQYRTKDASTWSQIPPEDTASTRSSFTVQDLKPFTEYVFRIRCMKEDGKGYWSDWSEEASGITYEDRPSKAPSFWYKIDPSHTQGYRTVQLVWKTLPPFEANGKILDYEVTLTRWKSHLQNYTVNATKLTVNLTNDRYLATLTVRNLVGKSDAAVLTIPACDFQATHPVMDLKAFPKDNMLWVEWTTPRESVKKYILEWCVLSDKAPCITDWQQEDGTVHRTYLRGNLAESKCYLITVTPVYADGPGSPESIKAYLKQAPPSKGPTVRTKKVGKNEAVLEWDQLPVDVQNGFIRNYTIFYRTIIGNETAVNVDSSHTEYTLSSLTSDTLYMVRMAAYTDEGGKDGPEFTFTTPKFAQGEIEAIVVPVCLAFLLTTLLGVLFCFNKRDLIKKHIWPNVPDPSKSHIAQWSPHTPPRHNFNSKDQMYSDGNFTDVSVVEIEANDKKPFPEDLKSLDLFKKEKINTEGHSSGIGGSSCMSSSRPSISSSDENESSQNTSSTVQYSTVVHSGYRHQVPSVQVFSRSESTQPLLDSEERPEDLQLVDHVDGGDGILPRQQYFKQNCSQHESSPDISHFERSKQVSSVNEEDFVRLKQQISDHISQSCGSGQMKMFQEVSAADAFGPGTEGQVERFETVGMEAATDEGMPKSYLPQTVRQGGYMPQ

Take “IL-27alpha^L162C,T238A,S240A (mutein of the alpha-subunit of human Interleukin 27) (from UniProt Q8NEV9 29-243) (ligand)”: the STAT1 activation (immunoblotting against phosphorylated STAT1), BL-2 cells, 60 minutes, 1000 ng/mL (fold over IL-27alpha^L162C) was 8.5.
